From publication PMC2946933
Where “and” joins values, the source holds several entries; their conditions need not be identical. Equal values may be shown once.

How the values were obtained:
Details in all cases: EMSA: 50 mM Tris-HCl pH 7.5, 100 mM KCl, 10 mM MgCl2, room temperature, SPR: same buffer, 25 C, Tb footprinting: 50 mM Tris-HCl pH 8.0, 100 mM NaCl
Hfq wild type [1] = target: T1, Hfq wild type (Escherichia coli?) (UniProt P0A6X3); experiment: EMSA
Hfq wild type [2] = target: T1, Hfq wild type; experiment: SPR
Hfq wild type [3] = target: T1, Hfq wild type; experiment: Tb(III) footprinting

T1 sequence (P0A6X3 whole entry): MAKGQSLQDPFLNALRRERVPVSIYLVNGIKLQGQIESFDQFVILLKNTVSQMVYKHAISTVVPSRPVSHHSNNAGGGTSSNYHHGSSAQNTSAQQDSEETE

| Substance | Kd (Hfq wild type [1]) [µM] | Kd (Hfq wild type [2]) | other results |
| --- | --- | --- | --- |
| GCAGCGUUACAUUCCCAUCCACUGGGGAAAGACGCGGCGCUGAUUGGUGAAGUGGUGGAACGUAAAGGUGUUCGUCUUGCCGGUCUGUAUGGCGUGAAACGAACCCUCGAUUUACCACACGCCGAACCGCUUCCGCGUAUAUGCUAAUAAAAUUCUAAAUCUCCUAUAGUUAGUCAAUGACCUUUUGCACCGCUUUGCGGUGCUUUCCUGGAAGAACAAAAUGUCAUAUACACCGAUGAGUGAUCUCGGACAACAAGGGUUGUUCGACAUCACUCGGACAAAUAUUGGAUCCGCUCGG [fhlA220 mRNA] | 0.015 | – | – |
| fhlA53 mRNA | – | 0.043 µM and 0.05 µM and 0.005 µM | Kd (Hfq wild type [1]; 10 mM Mg2+): 0.07 µM |
| OxyS sRNA with fhlA220 mRNA | 0.023 | – | – |
| GGCAGUUAGUCAAUGACCUUUUGCACCGCUUUGCGGUGCUUUCCUGGAAGAACAAAAUGUCAUAUACACCGAUGAGUGAUCUCGGACAACAAGGGUUGUUCGACAUCACUCGGACAACAAAUAUUGGAUCCAGCUCG [fhlA53 mRNA] | 0.07 | 0.043 µM and 0.05 µM | binding (Hfq wild type [3]): binds |
| fhlA220 mRNA | – | – | Kd (Hfq wild type [1]; Hfq hexamer, 10 mM Mg2+): 0.015 µM |
